Source: US20140044730A1 (Regeneron, published 2014)

Tests used:
[1] = target: T1, human PCSK9 with a C-terminal myc-myc-hexahistidine tag (human, UniProt Q8NBP7 31-692, limits assumed); assay: SPR 25C pH 7.2, mAb captured;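 also: biacore SPR, antibodies captured on anti-human Fc CM4 chip with PCSK9 flowed as analyte, rate constants from a one-to-one kinetic fit, KD and half-life derived from them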
T1 construct: also called hPCSK9-mmH; hPCSK9-mmh; not shown: C-terminal myc-myc-hexahistidine tag

[2] = target: T1, human PCSK9 with a C-terminal …; assay: SPR 25C, mAb captured;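 also: biacore CM4 surface bearing anti-human Fc antibody capturing the mAbs, PCSK9 binding and release rates fitted with a one-to-one model, KD and half-life derived from those rates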
[3] = target: T1, human PCSK9 with a C-terminal …; assay: SPR 25C pH 5.75, mAb captured;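 also: biacore surface with anti-human Fc antibody capturing the antibodies, PCSK9 as analyte, one-to-one kinetic fit, KD as kd over ka, half-life derived from kd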

| binding result [1] | Kd [1] [nM] | t½ [1] [min] | KD ratio pH 5.75/pH 7.2 [2] | t½ ratio pH 5.75/pH 7.2 [2] | Kd [3] [nM] | t½ [3] [min] | Binder |
| --- | --- | --- | --- | --- | --- | --- | --- |
| no binding | – | – | – | – | – | – | VH-A97 (antibody, V domains shown, His variant of 300N; label printed without the final H) VH: EMQLVESGGGLVQPGGSLRLSCAASGFTFSSHWMKWVRQAPGKGLEWVANINQDGSEKYYVDSVKGRFTISRDNAKNSLFLQMNSLRAEDTAVYYCHRDIVLMVYDMDYYYYGMDVWGQGTTVTVSS VL: not shown |
| – | 1.06 | 46 | 1.8 | 0.22 | 1.91 | 10 | VH-F29H (antibody, V domains shown, His variant of 300N) VH: EMQLVESGGGLVQPGGSLRLSCAASGFTHSSHWMKWVRQAPGKGLEWVANINQDGSEKYYVDSVKGRFTISRDNAKNSLFLQMNSLRAEDTAVYYCARDIVLMVYDMDYYYYGMDVWGQGTTVTVSS VL: not shown |
| no binding | – | – | – | – | – | – | VK-T96H (antibody, V domains shown, His variant of 300N) VH: EMQLVESGGGLVQPGGSLRLSCAASGFTFSSHWMKWVRQAPGKGLEWVANINQDGSEKYYVDSVKGRFTISRDNAKNSLFLQMNSLRAEDTAVYYCARDIVLMVYDMDYYYYGMDVWGQGTTVTVSS VL: not shown |
| – | 1.2 | 30 | 1.03 | 0.26 | 1.23 | 8 | VH-E57H (antibody, V domains shown, His variant of 300N) VH: EMQLVESGGGLVQPGGSLRLSCAASGFTFSSHWMKWVRQAPGKGLEWVANINQDGSHKYYVDSVKGRFTISRDNAKNSLFLQMNSLRAEDTAVYYCARDIVLMVYDMDYYYYGMDVWGQGTTVTVSS VL: not shown |
| – | 3.91 | 26 | 4.62 | 0.49 | 18.1 | 13 | VH-D115H (antibody, V domains shown, His variant of 300N) VH: EMQLVESGGGLVQPGGSLRLSCAASGFTFSSHWMKWVRQAPGKGLEWVANINQDGSEKYYVDSVKGRFTISRDNAKNSLFLQMNSLRAEDTAVYYCARDIVLMVYDMDYYYYGMHVWGQGTTVTVSS VL: not shown |
| – | 0.964 | 40 | 0.79 | 0.33 | 0.76 | 13 | VH-D54H (antibody, V domains shown, His variant of 300N) VH: EMQLVESGGGLVQPGGSLRLSCAASGFTFSSHWMKWVRQAPGKGLEWVANINQHGSEKYYVDSVKGRFTISRDNAKNSLFLQMNSLRAEDTAVYYCARDIVLMVYDMDYYYYGMDVWGQGTTVTVSS VL: not shown |
| no binding | – | – | – | – | – | – | VK-S32H (antibody, V domains shown, His variant of 300N) VH: EMQLVESGGGLVQPGGSLRLSCAASGFTFSSHWMKWVRQAPGKGLEWVANINQDGSEKYYVDSVKGRFTISRDNAKNSLFLQMNSLRAEDTAVYYCARDIVLMVYDMDYYYYGMDVWGQGTTVTVSS VL: not shown |
| – | 1.21 | 42 | 0.87 | 0.29 | 1.05 | 12 | VH-F27H (antibody, V domains shown, His variant of 300N) VH: EMQLVESGGGLVQPGGSLRLSCAASGHTFSSHWMKWVRQAPGKGLEWVANINQDGSEKYYVDSVKGRFTISRDNAKNSLFLQMNSLRAEDTAVYYCARDIVLMVYDMDYYYYGMDVWGQGTTVTVSS VL: not shown |
| no binding | – | – | – | – | – | – | VH-G113H (antibody, V domains shown, His variant of 300N) VH: EMQLVESGGGLVQPGGSLRLSCAASGFTFSSHWMKWVRQAPGKGLEWVANINQDGSEKYYVDSVKGRFTISRDNAKNSLFLQMNSLRAEDTAVYYCARDIVLMVYDMDYYYYHMDVWGQGTTVTVSS VL: not shown |
| – | 46.2 | 9 | 0.14 | 0.73 | 6.32 | 7 | VH-D99H (antibody, V domains shown, His variant of 300N) VH: EMQLVESGGGLVQPGGSLRLSCAASGFTFSSHWMKWVRQAPGKGLEWVANINQDGSEKYYVDSVKGRFTISRDNAKNSLFLQMNSLRAEDTAVYYCARHIVLMVYDMDYYYYGMDVWGQGTTVTVSS VL: not shown |
